{
  "source": "paper PMC10593839",
  "about": "“The liver microenvironment orchestrates FGL1-mediated immune escape and progression of metastatic colorectal cancer” (Nature Communications, 2023)",
  "binders": {"B1": {"name": "recombinant hFGL1 (fibrinogen-like protein 1) (ligand, human, UniProt Q08830 23-312, looked up)", "chain": "LEDCAQEQMRLRAQVRLLETRVKQQQVKIKQLLQENEVQFLDKGDENTVIDLGSKRQYADCSEIFNDGYKLSGFYKIKPLQSPAEFSVYCDMSDGGGWTVIQRRSDGSENFNRGWKDYENGFGNFVQKHGEYWLGNKNLHFLTTQEDYTLKIDLADFEKNSRYAQYKNFKVGDEKNFYELNIGEYSGTAGDSLAGNFHPEVQWWASHQRMKFSTWDRDHDNYEGNCAEEDQSGWWFNRCHSANLNGVYYSGPYTAKTDNGIVWYTWHGWWYSLKSVVMKIRPNDFIPNVI", "notes": "fibrinogen-like protein 1 (FGL1), human, recombinant; Bought recombinant protein; also called HFREP1; source: bought: ABclonal Technology"}},
  "molecular_target": "T1, recombinant hLAG-3 (lymphocyte activating 3) (human, UniProt P18627 23-450)",
  "T1 construct": "Bought recombinant protein; source: bought: ABclonal Technology",
  "T1 sequence (looked up)": "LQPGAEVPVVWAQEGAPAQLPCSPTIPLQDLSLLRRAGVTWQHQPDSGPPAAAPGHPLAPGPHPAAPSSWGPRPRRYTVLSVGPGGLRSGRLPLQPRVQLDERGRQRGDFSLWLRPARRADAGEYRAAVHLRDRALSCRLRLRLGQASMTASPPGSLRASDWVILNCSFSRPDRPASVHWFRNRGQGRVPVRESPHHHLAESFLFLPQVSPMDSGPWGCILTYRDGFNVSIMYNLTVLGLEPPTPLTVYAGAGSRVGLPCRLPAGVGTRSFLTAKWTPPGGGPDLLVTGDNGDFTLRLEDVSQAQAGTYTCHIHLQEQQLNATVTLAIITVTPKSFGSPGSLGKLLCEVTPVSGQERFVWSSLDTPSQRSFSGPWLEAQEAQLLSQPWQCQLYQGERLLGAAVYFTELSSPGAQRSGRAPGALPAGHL",
  "experiment": "ELISA; recombinant hLAG-3 (1 μg/mL) coated on ELISA microwells; different amounts of recombinant hFGL1 incubated for 1 h; detected with HRP-conjugated anti-hFGL1 antibody, OD 450 nm",
  "settings": "both partners purified",
  "data": [
    {"binder": "B1", "values": [
      {"measurement": "binding result", "result": "binds"}
    ]}
  ]
}
